Tests used:
[1] = target: StayGold (CU17S/V168A) (Cytaeis uchidae); assay: pseudonative SDS-PAGE; non-heated protein samples separated on 10% polyacrylamide gels
[2] = target: StayGold (CU17S/V168A) (Cytaeis uchidae); assay: AUC; sedimentation equilibrium; purified recombinant StayGold at 2.8 uM in 50 mM HEPES-NaOH (pH 7.4), 24 C, absorbance at 497 nm

- stoichiometry N [1]: 2
- stoichiometry N [2]: 2
Substance: StayGold (CU17S/V168A) (natural protein)

Reference: article PMC9287174
